T1: human EpCAM expressed on cells (CHO cells stably transfected with human EpCAM); EpCAM-positive human tumor … (human, UniProt P16422 24-314)
T1 sequence (looked up): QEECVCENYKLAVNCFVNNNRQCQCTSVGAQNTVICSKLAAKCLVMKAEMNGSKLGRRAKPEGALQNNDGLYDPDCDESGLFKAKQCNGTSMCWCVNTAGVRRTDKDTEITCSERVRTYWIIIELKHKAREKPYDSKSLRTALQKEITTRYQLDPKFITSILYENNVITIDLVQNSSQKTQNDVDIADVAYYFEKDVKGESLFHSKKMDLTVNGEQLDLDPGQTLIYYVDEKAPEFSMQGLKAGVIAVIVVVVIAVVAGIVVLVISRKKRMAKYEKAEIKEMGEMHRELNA


What was measured:
[1] = target: recombinant human CD3 epsilon & delta (rhCD3ε & δ), Creative BioMart cat #CD3E&CD3D-219H (human) (UniProt P07766); assay: sandwich ELISA: rhCD3ε & δ coated, biotinylated anti-XTEN antibody detection
[2] = target: T1, human EpCAM expressed on cells (CHO …); assay: cell-based or functional assay

Chain of recombinant human CD3 epsilon & delta (rhCD3ε & δ), Creative BioMart cat #CD3E&CD3D-219H (human) (P07766 23-126, stated change not applied, chain 1 of 2): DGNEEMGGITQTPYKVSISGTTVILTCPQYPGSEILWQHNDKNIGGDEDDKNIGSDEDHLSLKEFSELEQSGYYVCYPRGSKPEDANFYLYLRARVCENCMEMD
Chain of recombinant human CD3 epsilon & delta (rhCD3ε & δ), Creative BioMart cat #CD3E&CD3D-219H (human) (P04234 22-105, stated change not applied, chain 2 of 2, further chain): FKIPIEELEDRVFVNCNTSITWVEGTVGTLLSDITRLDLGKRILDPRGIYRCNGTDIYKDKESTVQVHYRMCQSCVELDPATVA

| Binder | EC50 [1] | EC50 (pM), caspase 3/7 cytotoxicity, PBMC with HCT-116 cells 10:1 [2] | EC50 (pM), caspase 3/7 cytotoxicity, PBMC with HPAF-II cells 10:1 [2] | EC50 (pM), caspase 3/7 cytotoxicity, PBMC with MDA-MB-231 cells 10:1 [2] |
| --- | --- | --- | --- | --- |
| AC1695 protease-untreated anti-EpCAM×anti-CD3 ProTIA (bispecific antibody) DIQMTQSPSSLSASVGDRVTITCRSTKSLLHSNGITYLYWYQQKPGKAPKLLIYQMSNLASGVPSRFSSSGSGTDFTLTISSLQPEDFATYYCAQNLEIPRTFGQGTKVEIKGATPPETGAETESPGETTGGSAESEPPGEGQVQLVQSGPGLVQPGGSVRISCAASGYTFTNYGMNWVKQAPGKGLEWMGWINTYTGESTYADSFKGRFTFSLDTSASAAYLQINSLRAEDTAVYYCARFAIKGDYWGQGTLLTVSSGGGGSDIQMTQSPSSLSASVGDRVTITCRASQDIRNYLNWYQQKPGKAPKLLIYYTSRLESGVPSRFSGSGSGTDYTLTISSLQPEDFATYYCQQGNTLPWTFGQGTKVEIKGATPPETGAETESPGETTGGSAESEPPGEGEVQLVESGGGLVQPGGSLRLSCAASGYSFTGYTMNWVRQAPGKGLEWVALINPYKGVSTYNQKFKDRFTISVDKSKNTAYLQMNSLRAEDTAVYYCARSGYYGDSDWYFDVWGQGTLVTVSSGTAEAASASGTTGRAGEAANLTPAGLTGPPGSPAGSPTSTEEGTSESATPESGPGTSTEPSEGSAPGSPAGSPTSTEEGTSTEPSEGSAPGTSTEPSEGSAPGTSESATPESGPGSEPATSGSETPGSEPATSGSETPGSPAGSPTSTEEGTSESATPESGPGTSTEPSEGSAPGTSTEPSEGSAPGSPAGSPTSTEEGTSTEPSEGSAPGTSTEPSEGSAPGTSESATPESGPGTSTEPSEGSAPGTSESATPESGPGSEPATSGSETPGTSTEPSEGSAPGTSTEPSEGSAPGTSESATPESGPGTSESATPESGPGSPAGSPTSTEEGTSESATPESGPGSEPATSGSETPGTSESATPESGPGTSTEPSEGSAPGTSTEPSEGSAPGTSTEPSEGSAPGTSTEPSEGSAPGTSTEPSEGSAPGTSTEPSEGSAPGSPAGSPTSTEEGTSTEPSEGSAPGTSESATPESGPGSEPATSGSETPGTSESATPESGPGSEPATSGSETPGTSESATPESGPGTSTEPSEGSAPGTSESATPESGPGSPAGSPTSTEEGSPAGSPTSTEEGSPAGSPTSTEEGTSESATPESGPGTSTEPSEGSAPGTSESATPESGPGSEPATSGSETPGTSESATPESGPGSEPATSGSETPGTSESATPESGPGTSTEPSEGSAPGSPAGSPTSTEEGTSESATPESGPGSEPATSGSETPGTSESATPESGPGSPAGSPTSTEEGSPAGSPTSTEEGTSTEPSEGSAPGTSESATPESGPGTSESATPESGPGTSESATPESGPGSEPATSGSETPGSEPATSGSETPGSPAGSPTSTEEGTSTEPSEGSAPGTSTEPSEGSAPGSEPATSGSETPGTSESATPESGPGTSTEPSEGSAPGHHHHHH | 0.028 µg/mL | 53 pM | 18 pM | 3750 pM |
| AC1684 protease-untreated anti-EpCAM×anti-CD3 ProTIA (bispecific antibody) DIQMTQSPSSLSASVGDRVTITCRSTKSLLHSNGITYLYWYQQKPGKAPKLLIYQMSNLASGVPSRFSSSGSGTDFTLTISSLQPEDFATYYCAQNLEIPRTFGQGTKVEIKGATPPETGAETESPGETTGGSAESEPPGEGQVQLVQSGPGLVQPGGSVRISCAASGYTFTNYGMNWVKQAPGKGLEWMGWINTYTGESTYADSFKGRFTFSLDTSASAAYLQINSLRAEDTAVYYCARFAIKGDYWGQGTLLTVSSGGGGSDIQMTQSPSSLSASVGDRVTITCRASQDIRNYLNWYQQKPGKAPKLLIYYTSRLESGVPSRFSGSGSGTDYTLTISSLQPEDFATYYCQQGNTLPWTFGQGTKVEIKGATPPETGAETESPGETTGGSAESEPPGEGEVQLVESGGGLVQPGGSLRLSCAASGYSFTGYTMNWVRQAPGKGLEWVALINPYKGVSTYNQKFKDRFTISVDKSKNTAYLQMNSLRAEDTAVYYCARSGYYGDSDWYFDVWGQGTLVTVSSGTAEAASASGESGRAANTEPPELGAGPGSPAGSPTSTEEGTSESATPESGPGTSTEPSEGSAPGSPAGSPTSTEEGTSTEPSEGSAPGTSTEPSEGSAPGTSESATPESGPGSEPATSGSETPGSEPATSGSETPGSPAGSPTSTEEGTSESATPESGPGTSTEPSEGSAPGTSTEPSEGSAPGSPAGSPTSTEEGTSTEPSEGSAPGTSTEPSEGSAPGTSESATPESGPGTSTEPSEGSAPGTSESATPESGPGSEPATSGSETPGTSTEPSEGSAPGTSTEPSEGSAPGTSESATPESGPGTSESATPESGPGSPAGSPTSTEEGTSESATPESGPGSEPATSGSETPGTSESATPESGPGTSTEPSEGSAPGTSTEPSEGSAPGTSTEPSEGSAPGTSTEPSEGSAPGTSTEPSEGSAPGTSTEPSEGSAPGSPAGSPTSTEEGTSTEPSEGSAPGTSESATPESGPGSEPATSGSETPGTSESATPESGPGSEPATSGSETPGTSESATPESGPGTSTEPSEGSAPGTSESATPESGPGSPAGSPTSTEEGSPAGSPTSTEEGSPAGSPTSTEEGTSESATPESGPGTSTEPSEGSAPGTSESATPESGPGSEPATSGSETPGTSESATPESGPGSEPATSGSETPGTSESATPESGPGTSTEPSEGSAPGSPAGSPTSTEEGTSESATPESGPGSEPATSGSETPGTSESATPESGPGSPAGSPTSTEEGSPAGSPTSTEEGTSTEPSEGSAPGTSESATPESGPGTSESATPESGPGTSESATPESGPGSEPATSGSETPGSEPATSGSETPGSPAGSPTSTEEGTSTEPSEGSAPGTSTEPSEGSAPGSEPATSGSETPGTSESATPESGPGTSTEPSEGSAPGHHHHHH | 0.031 µg/mL | 32 pM | 24 pM | 12200 pM |
| AC1685 protease-untreated anti-EpCAM×anti-CD3 ProTIA (bispecific antibody) DIQMTQSPSSLSASVGDRVTITCRSTKSLLHSNGITYLYWYQQKPGKAPKLLIYQMSNLASGVPSRFSSSGSGTDFTLTISSLQPEDFATYYCAQNLEIPRTFGQGTKVEIKGATPPETGAETESPGETTGGSAESEPPGEGQVQLVQSGPGLVQPGGSVRISCAASGYTFTNYGMNWVKQAPGKGLEWMGWINTYTGESTYADSFKGRFTFSLDTSASAAYLQINSLRAEDTAVYYCARFAIKGDYWGQGTLLTVSSGGGGSDIQMTQSPSSLSASVGDRVTITCRASQDIRNYLNWYQQKPGKAPKLLIYYTSRLESGVPSRFSGSGSGTDYTLTISSLQPEDFATYYCQQGNTLPWTFGQGTKVEIKGATPPETGAETESPGETTGGSAESEPPGEGEVQLVESGGGLVQPGGSLRLSCAASGYSFTGYTMNWVRQAPGKGLEWVALINPYKGVSTYNQKFKDRFTISVDKSKNTAYLQMNSLRAEDTAVYYCARSGYYGDSDWYFDVWGQGTLVTVSSGTAEAASASGESGRAANTAPEGLTGPPGSPAGSPTSTEEGTSESATPESGPGTSTEPSEGSAPGSPAGSPTSTEEGTSTEPSEGSAPGTSTEPSEGSAPGTSESATPESGPGSEPATSGSETPGSEPATSGSETPGSPAGSPTSTEEGTSESATPESGPGTSTEPSEGSAPGTSTEPSEGSAPGSPAGSPTSTEEGTSTEPSEGSAPGTSTEPSEGSAPGTSESATPESGPGTSTEPSEGSAPGTSESATPESGPGSEPATSGSETPGTSTEPSEGSAPGTSTEPSEGSAPGTSESATPESGPGTSESATPESGPGSPAGSPTSTEEGTSESATPESGPGSEPATSGSETPGTSESATPESGPGTSTEPSEGSAPGTSTEPSEGSAPGTSTEPSEGSAPGTSTEPSEGSAPGTSTEPSEGSAPGTSTEPSEGSAPGSPAGSPTSTEEGTSTEPSEGSAPGTSESATPESGPGSEPATSGSETPGTSESATPESGPGSEPATSGSETPGTSESATPESGPGTSTEPSEGSAPGTSESATPESGPGSPAGSPTSTEEGSPAGSPTSTEEGSPAGSPTSTEEGTSESATPESGPGTSTEPSEGSAPGTSESATPESGPGSEPATSGSETPGTSESATPESGPGSEPATSGSETPGTSESATPESGPGTSTEPSEGSAPGSPAGSPTSTEEGTSESATPESGPGSEPATSGSETPGTSESATPESGPGSPAGSPTSTEEGSPAGSPTSTEEGTSTEPSEGSAPGTSESATPESGPGTSESATPESGPGTSESATPESGPGSEPATSGSETPGSEPATSGSETPGSPAGSPTSTEEGTSTEPSEGSAPGTSTEPSEGSAPGSEPATSGSETPGTSESATPESGPGTSTEPSEGSAPGHHHHHH | 0.029 µg/mL | 27 pM | 29 pM | 4340 pM |
| AC1686 protease-untreated anti-EpCAM×anti-CD3 ProTIA (bispecific antibody) DIQMTQSPSSLSASVGDRVTITCRSTKSLLHSNGITYLYWYQQKPGKAPKLLIYQMSNLASGVPSRFSSSGSGTDFTLTISSLQPEDFATYYCAQNLEIPRTFGQGTKVEIKGATPPETGAETESPGETTGGSAESEPPGEGQVQLVQSGPGLVQPGGSVRISCAASGYTFTNYGMNWVKQAPGKGLEWMGWINTYTGESTYADSFKGRFTFSLDTSASAAYLQINSLRAEDTAVYYCARFAIKGDYWGQGTLLTVSSGGGGSDIQMTQSPSSLSASVGDRVTITCRASQDIRNYLNWYQQKPGKAPKLLIYYTSRLESGVPSRFSGSGSGTDYTLTISSLQPEDFATYYCQQGNTLPWTFGQGTKVEIKGATPPETGAETESPGETTGGSAESEPPGEGEVQLVESGGGLVQPGGSLRLSCAASGYSFTGYTMNWVRQAPGKGLEWVALINPYKGVSTYNQKFKDRFTISVDKSKNTAYLQMNSLRAEDTAVYYCARSGYYGDSDWYFDVWGQGTLVTVSSGTAEAASASGEPGRAANHEPSGLTEGPGSPAGSPTSTEEGTSESATPESGPGTSTEPSEGSAPGSPAGSPTSTEEGTSTEPSEGSAPGTSTEPSEGSAPGTSESATPESGPGSEPATSGSETPGSEPATSGSETPGSPAGSPTSTEEGTSESATPESGPGTSTEPSEGSAPGTSTEPSEGSAPGSPAGSPTSTEEGTSTEPSEGSAPGTSTEPSEGSAPGTSESATPESGPGTSTEPSEGSAPGTSESATPESGPGSEPATSGSETPGTSTEPSEGSAPGTSTEPSEGSAPGTSESATPESGPGTSESATPESGPGSPAGSPTSTEEGTSESATPESGPGSEPATSGSETPGTSESATPESGPGTSTEPSEGSAPGTSTEPSEGSAPGTSTEPSEGSAPGTSTEPSEGSAPGTSTEPSEGSAPGTSTEPSEGSAPGSPAGSPTSTEEGTSTEPSEGSAPGTSESATPESGPGSEPATSGSETPGTSESATPESGPGSEPATSGSETPGTSESATPESGPGTSTEPSEGSAPGTSESATPESGPGSPAGSPTSTEEGSPAGSPTSTEEGSPAGSPTSTEEGTSESATPESGPGTSTEPSEGSAPGTSESATPESGPGSEPATSGSETPGTSESATPESGPGSEPATSGSETPGTSESATPESGPGTSTEPSEGSAPGSPAGSPTSTEEGTSESATPESGPGSEPATSGSETPGTSESATPESGPGSPAGSPTSTEEGSPAGSPTSTEEGTSTEPSEGSAPGTSESATPESGPGTSESATPESGPGTSESATPESGPGSEPATSGSETPGSEPATSGSETPGSPAGSPTSTEEGTSTEPSEGSAPGTSTEPSEGSAPGSEPATSGSETPGTSESATPESGPGTSTEPSEGSAPGHHHHHH | 0.026 µg/mL | 240 pM | 118 pM | 2680 pM |
